According to US20160282364A1, “ASSAY FOR INSULIN-DEGRADING ENZYME (IDE) INHIBITORS” (PRESIDENT AND FELLOWS OF HARVARD COLLEGE, priority 2013, published 2016):

Target: IDE (UniProt P14735)
Test: enzyme inhibition (double inhibitor plot); 1x IC50

## Bacitracin
  IC50: 10 µM
